Measurements published in EP2060581A1 (Chemotherapeutisches Forschungsinstitut Georg-Speyer-Haus, dated 2009).

Biological target: T1, ErbB2 receptor (UniProt P04626 23-1255)
T1 construct: Whole endogenous receptor from cell extracts, immunoprecipitated with an ErbB2 antibody
Assay: co-immunoprecipitation from SK-BR3 membrane extracts with an ErbB2 antibody, Western blot with Flag antibody

B1: mt bTrx-All-7 (designed binder)
chain: MSDKIIHLTDDSFDTDVLKADGAILVDFWAEWSGPPLNFYRHGFLPNAVMASMLEVGPWFELLGPCGLAGHPLSSLRIGPSKMIAPILDEIADEYQGKLTVAKLNIDQNPGTAPKYGIRGIPTLLLFKNGEVAATKVGALSKGQLKEFLDANLA
notes: Purified recombinant protein; Largely monomeric; also called All-7 aptamer in mutated bTrx (mt); All-7 in the mutated scaffold; not shown: Flag-tag, one or two His-tags and a 9R protein transduction domain
In the case of B1, the “fold increase in binding against wt bTrx-All-7” value is reported as 2.4 fold.
